Assay results: patent US20260234655A1, “Nuclear Targeted DNA Delivery and Compositions for Use in Practicing the Same” (Seawolf Therapeutics, Inc., priority 2022, published 2026)

B1: DTS with 3 repeats of UAS: DNA with GFP cassette and DTS of 3 UAS repeats (nucleic acid)
DNA: CGGAGGACTGTCCTCCGTGAGTCCTAGCGGAGGACTGTCCTCCGTCTTCACAGGCGGAGGACTGTCCTCCG
modifications: DNA nuclear targeting sequence within DNA carrying a GFP cassette, further chemistry not given here
notes: DNA with GFP cassette and DTS of 3 UAS repeats
B2: DTS with 10 repeats of UAS: DNA with GFP cassette and DTS of 10 UAS repeats (nucleic acid)
DNA: CGGAGGACTGTCCTCCGTGAGTCCTAGCGGAGGACTGTCCTCCGTCTTCACAGGCGGAGGACTGTCCTCCGTAGGGTTCCTCGGAGGACTGTCCTCCGACACTAGAGTCGGAGGACTGTCCTCCGGATAGTATCACGGAGGACTGTCCTCCGAATGGACTAACGGAGGACTGTCCTCCGAGCAAACGAACGGAGGACTGTCCTCCGTACACCGATCCGGAGGACTGTCCTCCGGCGCTCGGCACGGAGGACTGTCCTCCG
B3: DTS with 7 repeats of UAS: DNA with GFP cassette and DTS of 7 UAS repeats (nucleic acid)
DNA: CGGAGGACTGTCCTCCGTGAGTCCTAGCGGAGGACTGTCCTCCGTCTTCACAGGCGGAGGACTGTCCTCCGTAGGGTTCCTCGGAGGACTGTCCTCCGACACTAGAGTCGGAGGACTGTCCTCCGGATAGTATCACGGAGGACTGTCCTCCGAGCAAACGAACGGAGGACTGTCCTCCG
B4: DTS with 5 repeats of UAS: DNA with GFP cassette and DTS of 5 UAS repeats (nucleic acid)
DNA: CGGAGGACTGTCCTCCGTGAGTCCTAGCGGAGGACTGTCCTCCGTCTTCACAGGCGGAGGACTGTCCTCCGTAGGGTTCCTCGGAGGACTGTCCTCCGACACTAGAGTCGGAGGACTGTCCTCCG
modifications: DNA nuclear targeting sequence within DNA carrying a GFP cassette, further chemistry not given here
notes: DNA with GFP cassette and DTS of 5 UAS repeats
B5: DTS with 4 repeats of UAS: DNA with GFP cassette and DTS of 4 UAS repeats (nucleic acid)
DNA: CGGAGGACTGTCCTCCGTGAGTCCTAGCGGAGGACTGTCCTCCGTCTTCACAGGCGGAGGACTGTCCTCCGTAGGGTTCCTCGGAGGACTGTCCTCCG
modifications: DNA nuclear targeting sequence within DNA carrying a GFP cassette, further chemistry not given here
notes: DNA with GFP cassette and DTS of 4 UAS repeats
B6: DTS with 7 repeats of TetO: DNA with GFP cassette and DTS of 7 TetO repeats (nucleic acid)
DNA: CTCGAGTTTACTCCCTATCAGTGATAGAGAACGTATGTCGAGTTTACTCCCTATCAGTGATAGAGAACGATGTCGAGTTTACTCCCTATCAGTGATAGAGAACGTATGTCGAGTTTACTCCCTATCAGTGATAGAGAACGTATGTCGAGTTTACTCCCTATCAGTGATAGAGAACGTATGTCGAGTTTATCCCTATCAGTGATAGAGAACGTATGTCGAGTTTACTCCCTATCAGTGATAGAGAACGTATGTCGAGGTAGGCGTGTACGGTGGGAGGCCTATATAAGCAGAGCTCGTTTAGTGAACCGTCAGATCGCCTGGAGAATTCA
B7: DTS with 2 repeats of TetO: DNA with GFP cassette and DTS of 2 TetO repeats (nucleic acid)
DNA: CTCGAGTTTACTCCCTATCAGTGATAGAGAACGTATGTCGAGTTTACTCCCTATCAGTGATAGAGAACGATGTCGAGTTTAC
modifications: DNA nuclear targeting sequence within DNA carrying a GFP cassette, further chemistry not given here
notes: DNA with GFP cassette and DTS of 2 TetO repeats
B8: DTS with 3 repeats of TetO: DNA with GFP cassette and DTS of 3 TetO repeats (nucleic acid)
DNA: CTCGAGTTTACTCCCTATCAGTGATAGAGAACGTATGTCGAGTTTACTCCCTATCAGTGATAGAGAACGATGTCGAGTTTACTCCCTATCAGTGATAGAGAACGTATGTCGAGTTTAC
modifications: DNA nuclear targeting sequence within DNA carrying a GFP cassette, further chemistry not given here
notes: DNA with GFP cassette and DTS of 3 TetO repeats
B9: DTS with 5 repeats of TetO: DNA with GFP cassette and DTS of 5 TetO repeats (nucleic acid)
DNA: CTCGAGTTTACTCCCTATCAGTGATAGAGAACGTATGTCGAGTTTACTCCCTATCAGTGATAGAGAACGATGTCGAGTTTACTCCCTATCAGTGATAGAGAACGTATGTCGAGTTTACTCCCTATCAGTGATAGAGAACGTATGTCGAGTTTACTCCCTATCAGTGATAGAGAACGTATGTCGAGTTTA
B10: DTS with 4 repeats of TetO: DNA with GFP cassette and DTS of 4 TetO repeats (nucleic acid)
DNA: CTCGAGTTTACTCCCTATCAGTGATAGAGAACGTATGTCGAGTTTACTCCCTATCAGTGATAGAGAACGATGTCGAGTTTACTCCCTATCAGTGATAGAGAACGTATGTCGAGTTTACTCCCTATCAGTGATAGAGAACGTATGTCGAGTTTAC
B11: DTS with 6 repeats of TetO: DNA with GFP cassette and DTS of 6 TetO repeats (nucleic acid)
DNA: CTCGAGTTTACTCCCTATCAGTGATAGAGAACGTATGTCGAGTTTACTCCCTATCAGTGATAGAGAACGATGTCGAGTTTACTCCCTATCAGTGATAGAGAACGTATGTCGAGTTTACTCCCTATCAGTGATAGAGAACGTATGTCGAGTTTACTCCCTATCAGTGATAGAGAACGTATGTCGAGTTTATCCCTATCAGTGATAGAGAACGTATGTCGAGTTTAC

system: growth-arrested HepG2 cells; assay: Number of TFBS repeats in the DTS (TetO, UAS), co-transfection with TetR or Gal4 mRNA in growth-arrested HepG2 cells; GFP intensity; format: cell-based; settings: growth-arrested HepG2 cells, 12 h
Protocol: Co-transfection of DNA and mRNA into HepG2 cells. HepG2 cells were purchased from ATCC and grown in complete media (EMEM+10% fetal bovine serum, ATCC). For co-transfection experiments, cells were seeded at confluence onto collagen coated 384-well plates and cultured for 48 hours in complete media followed by 48 hours in complete media supplemented with […] aphidicolin to prevent cell division. After the outgrowth period, cells were transfected using Lipofectamine3000 (Invitrogen) transfection reagent according to the manufacturer's instructions. RNA and DNA were independently complexed with Lipofectamine3000 in Opti-MEM I (Gibco) for 15 minutes. RNA and DNA complexes were then mixed, followed by 1:10 dilution into complete media supplemented with 0.75 μM aphidicolin. Media was aspirated from the plated HepG2 cells and replaced with the transfection mix. DNA was transfected from 17.5 ng to 4.38 ng per well. mRNA was transfected from 70 ng to 0.07 ng per well. Cells were live-imaged using a 4× objective with a GFP filter set and brightfield at 3-hour intervals for 72 hours using a Cytation5 automated microscope (Agilent) attached to a BioSpa8 automated incubator (Agilent). Gen5IPrime (Agilent) image analysis software was used to quantify the number of GFP cells and GFP Intensity per well.
In this study, DNAs were engineered to comprise DTSs having different numbers of TFBS repeats for TetR or Gal4, and the impact of multiple sequences assessed in vitro by co-transfection of mRNA encoding TetR or Gal4 NTF. Growth-arrested HepG2 cells were co-transfected with mRNA encoding the NTF protein along with DNA comprising a cognate DTS and a GFP expression cassette. Each NTF mRNA was paired with a cognate DNA in the co-transfection, where the cognate DNA comprised a DTS with varying numbers of cognate TFBS repeats. For example, the TetR mRNA was paired with DNAs comprising DTSs with 2, 3, 4, 5, 6, or 7 repeats of a TetR TFBS (e.g., TetO). Twenty-four hours after transfection, GFP expression was assessed by measuring GFP fluorescence intensity.
The increase in gene expression appeared to increase with the number of TetO repeats in the DTS, with 7 repeats producing an increase in GFP expression greater than 10-fold at the highest amount of RNA (e.g., 17.5 ng RNA) compared to DNA alone (FIG. 16A).
The Gal4 mRNA was paired with DNAs comprising DTSs with 1, 2, 3, 4, 5, 7, or 10 repeats of a Gal4 TFBS (e.g., UAS). Twelve hours after transfection, GFP expression was assessed by measuring GFP fluorescence intensity. […] The increase in gene expression appeared to increase with the number of UAS repeats in the DTS up to 5 repeats, while the increase in gene expression appeared saturable as 5, 7, and 10 repeats performed similarly (FIG. 16B). Co-transfection of Gal4 mRNA and DNA comprising a DTS of 5, 7, or 10 repeats produced an increase in GFP expression greater than 10-fold at the highest amount of RNA (e.g., 17.5 ng RNA) compared to DNA alone (e.g., 0 ng RNA) in HepG2 cells (FIG. 16B).

Row | Molecule | gene expression over DNA alone on co-transfection with Gal4 mRNA
1 | DTS with 2 repeats of UAS: DNA with GFP cassette and DTS of 2 UAS repeats (DNA CGGAGGACTGTCCTCCGTGAGTCCTAGCGGAGGACTGTCCTCCG; DNA nuclear targeting sequence within DNA carrying a GFP cassette, further chemistry not given here) | did not substantially increase gene expression
2 | DTS with 1 repeat of UAS: DNA with GFP cassette and DTS of 1 UAS (Gal4 TFBS) (DNA ACACTAGAGTCGGAGGACTGTCCTCCGTGAGTCCTAG; DNA nuclear targeting sequence within DNA carrying a GFP cassette, further chemistry not given here) | did not substantially increase gene expression
3 | B1 | did substantially increase gene expression
4 | B2 | did substantially increase gene expression
5 | B3 | did substantially increase gene expression
6 | B4 | did substantially increase gene expression
7 | B5 | did substantially increase gene expression

same assay, conditions: growth-arrested HepG2 cells, 24 h

Row | Molecule | gene expression over DNA alone on co-transfection with TetR mRNA
8 | B6 | did substantially increase gene expression
9 | B7 | did not substantially increase gene expression
10 | B8 | did substantially increase gene expression
11 | B9 | did substantially increase gene expression
12 | B10 | did substantially increase gene expression
13 | B11 | did substantially increase gene expression

same assay, conditions: highest amount of RNA (17.5 ng RNA), 24 h

Row | Molecule | increase in GFP expression compared to DNA alone on co-transfection with TetR mRNA
14 | B6 | greater than 10 fold
